# Data from US20250122303A1 (HUMMINGBIRD BIOSCIENCE PTE, published 2025).
# T1: moFcRn (mouse, UniProt Q61559)
# T1 construct: recombinant; also called mouse FcRn; gene FCGRT (so in the source)
# T1 sequence (receptor, looked up): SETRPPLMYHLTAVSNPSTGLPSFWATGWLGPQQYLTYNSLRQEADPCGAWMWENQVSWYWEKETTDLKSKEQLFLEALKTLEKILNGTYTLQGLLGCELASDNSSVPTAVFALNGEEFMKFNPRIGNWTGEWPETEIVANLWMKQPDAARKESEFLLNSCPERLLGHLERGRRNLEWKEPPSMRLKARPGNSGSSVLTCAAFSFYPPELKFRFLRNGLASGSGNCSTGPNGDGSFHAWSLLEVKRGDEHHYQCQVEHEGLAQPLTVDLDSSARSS
# T1 sequence (looked up): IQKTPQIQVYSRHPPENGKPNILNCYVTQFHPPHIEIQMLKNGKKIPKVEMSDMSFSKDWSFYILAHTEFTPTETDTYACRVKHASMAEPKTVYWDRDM
# T2: FcgRIIA (H167) (human, UniProt P12318)
# T2 construct: recombinant; also called CD32A; hFcγRIIa167H
# T2 sequence (receptor, looked up): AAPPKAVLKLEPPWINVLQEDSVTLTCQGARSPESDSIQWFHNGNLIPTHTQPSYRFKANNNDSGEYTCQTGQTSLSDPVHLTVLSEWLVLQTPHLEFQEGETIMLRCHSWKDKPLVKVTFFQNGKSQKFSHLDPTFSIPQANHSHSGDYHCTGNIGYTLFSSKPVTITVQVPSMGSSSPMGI
# T3: FcgRIIA (R167) (human, UniProt P12318)
# T3 construct: recombinant; also called CD32A; hFcγRIIa167R
# T3 sequence (receptor, looked up): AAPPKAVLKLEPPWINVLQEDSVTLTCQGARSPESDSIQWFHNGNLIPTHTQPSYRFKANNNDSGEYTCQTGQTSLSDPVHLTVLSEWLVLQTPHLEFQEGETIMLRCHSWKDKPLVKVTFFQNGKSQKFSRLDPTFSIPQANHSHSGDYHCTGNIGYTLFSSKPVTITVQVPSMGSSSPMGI
# T4: FcgRIIB (human, UniProt P31994)
# T4 construct: recombinant; also called CD32B; hFcγRIIb
# T4 sequence (receptor, looked up): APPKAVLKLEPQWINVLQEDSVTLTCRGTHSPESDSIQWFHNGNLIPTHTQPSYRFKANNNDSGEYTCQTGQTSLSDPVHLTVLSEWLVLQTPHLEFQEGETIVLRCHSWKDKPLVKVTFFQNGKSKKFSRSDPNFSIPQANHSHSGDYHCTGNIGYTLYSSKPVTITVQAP
# T5: moFcgRIV
# T5 construct: also called CD16-2; mFcγRIV
# T5 chain: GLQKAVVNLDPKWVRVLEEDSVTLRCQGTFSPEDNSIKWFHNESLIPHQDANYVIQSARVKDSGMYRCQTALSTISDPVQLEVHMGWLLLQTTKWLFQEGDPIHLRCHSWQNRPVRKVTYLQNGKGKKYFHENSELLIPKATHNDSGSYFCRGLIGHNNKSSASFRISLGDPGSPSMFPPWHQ
# Assays:
# [1] = target: T6, His-tagged FcγRIIIa (V158) (human, UniProt P08637 17-208); assay: Bio-Layer Interferometry; His-tagged FcγRIIIa (V158) on anti-Penta-HIS tips, antibody in solution
# T6 construct: not shown: His tag
# Experimental: (§1) All measurements were performed at 25° C. with agitation at 1000 rpm. […] Sensograms were referenced for buffer effects and then fitted using the Octet QK384 user software (Pall ForteBio, USA). Kinetic responses were subjected to a global fitting using a one site binding model to obtain values for association (Kₒₙ), dissociation (Koff) rate constants and the equilibrium dissociation constant (KD). Only curves that could be reliably fitted with the software (R²>0.90) were included in the analysis.
# BLI was performed as described above.
# [2] = target: T7, FcRn (human, UniProt P55899); assay: Bio-Layer Interferometry (determined as described in Example 7)
# T7 construct: recombinant; also called human FcRn; gene FCGRT (so in the source)
# [3] = target: T1, moFcRn; assay: as above
# [4] = target: T8, His-tagged human HER3 (human, UniProt P21860 20-643); assay: Bio-Layer Interferometry (Octet QK384); antibody on anti-Human IgG Capture tips, HIS-tagged human HER3 at 30.3, 60.5, 121 and 242 nM
# T8 construct: Antigen of the BLI experiments and of the HER2-Fc dimerisation ELISA; also called HER3 His; not shown: His tag
# [5] = target: T9, FcgRIIIA (F158) (human, UniProt P08637); assay: Bio-Layer Interferometry (determined as described in Example 7)
# T9 construct: recombinant; also called CD16A; hFcγRIIIa158F
# [6] = target: T6, His-tagged FcγRIIIa (V158); assay: as above
# [7] = target: T2, FcgRIIA (H167); assay: as above
# [8] = target: T3, FcgRIIA (R167); assay: as above
# [9] = target: T4, FcgRIIB; assay: as above
# [10] = target: T5, moFcgRIV; assay: as above
# [11] = target: T10, human HER3 expressed on cells (HEK293 HER3 O/E cells) (human, UniProt P21860 20-1342); assay: flow cytometry, HEK293 and HEK293 cells overexpressing human HER3, 20 ug/ml antibody, FITC anti-Fc secondary
# T10 construct: Also used here for HER3 on U2OS cells of the PathHunter kit and on cancer cell lines; also called HEK293 cells transfected with vector encoding human HER3; human HER3-expressing cells
# Experimental: The cells were washed thrice with FACS buffer (PBS with 5 mM EDTA and 0.5% BSA) and resuspended in FITC-conjugated anti-FC antibody (Invitrogen, USA) for 40 min at 2-8° C. Cells were washed again and resuspended in 200 μL of FACS flow buffer (PBS with 5 mM EDTA) for flow cytometric analysis using MACSQuant 10 (Miltenyi Biotec, Germany). After acquisition, all raw data were analyzed using Flowlogic software. Cells were gated using forward and side scatter profile percentage of positive cells was determined for native and overexpressing cell populations.
# [12] = target: T8, His-tagged human HER3; assay: plate ELISA dimerisation assay; HER2-Fc coated, constant HER3 His and NRG, antibody varied; blocked partner HER2-Fc
# Experimental: Plate-based ELISA dimerisation assays were carried out according to standard protocols. Plates were coated with 1 μg/ml HER2-Fc protein. […] Plates were then washed and incubated for 1 hour with secondary anti-HIS HRP antibody. […] The absorbance was read at 450 nm.
# [13] = target: T8, His-tagged human HER3; assay: BLI (Octet QK384), antibody on anti-human IgG capture tips, His-tagged human HER3 in solution, global one-site fit
# Experimental: as §1, with “The anti-HER3 antibody clones in IgG1 format were analysed for binding affinity to human HER3. Bio-Layer Interferometry (BLI) experiments were performed using the Octet QK384 system (ForteBio). anti-Human IgG Capture (AHC) Octet sensor tips (Pall ForteBio, USA) were used to anti-HER3 antibodies (25 nM). All” for “All”
binder,measurement,setting,value
"10D1 GASD variant (antibody, human IgG1, kappa, also called Fc-modified anti-HER3 antibody clone 10D1 comprising GASD substitutions in CH2 region) heavy: not shown light: DIVMTQSQKFMSTSVGDRVSVTCKASQIVGSNVAWYQQKPGQSPKPLIYSASYRYSGVPDRFTASGSGTDFTLTITNVQSEDLAEYFCQQYSSHPLTFGAGTKLELKRTVAAPSVFIFPPSDEQLKSGTASVVCLLNNFYPREAKVQWKVDNALQSGNSQESVTEQDSKDSTYSLSSTLTLSKADYEKHKVYACEVTHQGLSSPVTKSFNRGEC",Kd,[1],58 nM
same,koff,[1],0.009 s⁻¹
same,kon,[1],160000 M⁻¹ s⁻¹
10D1F hIgG1 N297Q (antibody) heavy chain: not shown light chain: DIQMTQSPSSVSASVGDRVTITCKASQIVGSNVAWYQQKPGKAPEPLIYSASYLYSGVPSRFSGSGSGTDFTLTISSLQPEDFATYYCQQYSSHPLTFGQGTKLEIKRTVAAPSVFIFPPSDEQLKSGTASVVCLLNNFYPREAKVQWKVDNALQSGNSQESVTEQDSKDSTYSLSSTLTLSKADYEKHKVYACEVTHQGLSSPVTKSFNRGEC,Kd,[2],54.6 nM
same,Kd,[3],13.7 nM
"10D1F.FcB (antibody, human IgG1, kappa, also called 10D1F.B) heavy: QVQLQESGPGLVKPSQTLSLTCTVSGYSITSGYSWHWIRQHPGKGLEWIGSIRYSGGTDYNPSLKSLVTISADTSKNQFSLKLSSVTAADTAVYYCARMTTAPWYPFDYWGQGTTVTVSSASTKGPSVFPLAPSSKSTSGGTAALGCLVKDYFPEPVTVSWNSGALTSGVHTFPAVLQSSGLYSLSSVVTVPSSSLGTQTYICNVNHKPSNTKVDKKVEPKSCDKTHTCPPCPAPELLAGPDVFCFPPKPKDTLMISRTPEVTCVVVDVSHEDPEVKFNWYVDGVEVHNAKTKPREEQYNSTYRVVSVLTVLHQDWLNGKEYKCKVSNKALPLPEECTISKAKGQPREPQVYTLPPSRDELTKNQVSLTCLVKGFYPSDIAVEWESNGQPENNYKTTPPVLDSDGSFFLYSKLTVDKSRWQQGNVFSCSVMHEALHNHYTQKSLSLSPGK light: DIQMTQSPSSVSASVGDRVTITCKASQIVGSNVAWYQQKPGKAPEPLIYSASYLYSGVPSRFSGSGSGTDFTLTISSLQPEDFATYYCQQYSSHPLTFGQGTKLEIKRTVAAPSVFIFPPSDEQLKSGTASVVCLLNNFYPREAKVQWKVDNALQSGNSQESVTEQDSKDSTYSLSSTLTLSKADYEKHKVYACEVTHQGLSSPVTKSFNRGEC",Kd,[4],0.0222 nM
same,koff,[4],4.96e-06 s⁻¹
same,kon,[4],223000 M⁻¹ s⁻¹
same,Kd,[5],162 nM
same,Kd,[2],37.4 nM
same,Kd,[6],82.1 nM
same,Kd,[7],561 nM
same,Kd,[8],400 nM
same,Kd,[9],580 nM
same,Kd,[3],15.2 nM
same,Kd,[10],55.4 nM
"anti-HER3 clone 10A6 IgG1 (antibody, V domains shown, Human-mouse chimeric IgG1/kappa) VH: DVQLQESGPGLVKPSQSLSLTCSVTGNFITSGYFWNWIRQFPGNKLEWMGFISYDGSNNYKPSLKNRISITRDTSKNQFFLKLNSVTTEDTATYYCARENYGFGFDYWGQGTTLTVSS VL: DIVLTQSPSSLPVSIGEKVTMSCKSSQSLLYSDNQKNYLAWYQQKPGQSPKLLIYWASTWKSGVPDRFTGSGSGTDFTLTISSVKAEDLAVYYCQQYFTFPWTFGGGTKLEIKR",binding result,[11],binds
"M-05-74 (antibody, V domains shown) VH: QVQLQQSGAELAKPGASVKMSCKTSGYTLTDYWIHWVKQRPGQGLEWIGYINPYTGYTESNQKFKDKATLTADKSSNTAYIQLSSLTSEDSAVYYCARPYYYGDYWGQGTTLTVSS VL: QIVLTQSPAIMSASPGERVTITCSASSSVSYMHWFQQKPGTSPKLLIYSTSNLASGVPARFSGSGSGTSYSLTISRMEAEDAATYYCQQRSSYPFTFGSGTKLEIK",IC50,[12],80.2 nM
"anti-HER3 clone 4-35-B4 IgG1 (antibody, V domains shown, Human-mouse chimeric IgG1/kappa) VH: EVQLQQSGAELVKPGASVKLSCTASGFNIKDTYIHWVKQRPDQGLEWIGKIIDPANGNTNYDPKFQGKATITADTSSNTAYLQLSSLSSEDTAVYFCARGLHWGQGTTLTVSS VL: DIVLTQSPASLAVSLGQRATISCRASKSVSTSGYSYMHWYQQKPGQPPKLLIYLASNLESGVPARFSGSGSGTDFTLNIHPVEEEDAATYYCQHSRELPYTFGGGTKLEIKR",Kd,[13],50.3 nM
